# Measurements published in the supplement of paper PMC9112550, “Optimization of the antimicrobial peptide Bac7 by deep mutational scanning” (BMC Biology, 2022).
# System: Escherichia coli TOP10
# Assay: shrunken log2 fold change of peptide-encoding DNA abundance (4.5 h post-induction vs induction); higher = less antimicrobial activity (less host growth inhibition)
# Settings: time post-induction: 4.5 h; library: site-saturation at positions 5, 18, 19, 20
# 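Note: peptides expressed intracellularly from a pBAD plasmid library in pooled LB shake-flask culture, induced with 0.3% L-arabinose, DNA abundance read by NGS, three biological replicates, DESeq2 with apeglm shrinkage.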
row,Sequence,shrunken log2 fold change
1,RRIRIRPPRLPRPRPRPFEYPRP,-0.709
2,RRIRCRPPRLPRPRPRPNAIPRP,0.0905
3,RRIRVRPPRLPRPRPRPSNSPRP,-0.826
4,RRIRFRPPRLPRPRPRPQSFPRP,0.00824
5,RRIRSRPPRLPRPRPRPVQCPRP,-0.102
6,RRIRIRPPRLPRPRPRPLTGPRP,-0.0674
7,RRIRYRPPRLPRPRPRPWVMPRP,-0.195
8,RRIRARPPRLPRPRPRPPTMPRP,0.407
9,RRIRIRPPRLPRPRPRPDGEPRP,0.0147
10,RRIRFRPPRLPRPRPRPCWGPRP,0.00445
11,RRIRRRPPRLPRPRPRPFLDPRP,0.0172
12,RRIRGRPPRLPRPRPRPCDPPRP,0.228
13,RRIRSRPPRLPRPRPRPCWLPRP,0.102
14,RRIRYRPPRLPRPRPRPINHPRP,-0.675
15,RRIRKRPPRLPRPRPRPGQTPRP,0.611
16,RRIRMRPPRLPRPRPRPRLWPRP,0.103
17,RRIRPRPPRLPRPRPRPEFYPRP,-0.173
18,RRIRIRPPRLPRPRPRPSWWPRP,-0.059
19,RRIRLRPPRLPRPRPRPWCNPRP,-0.121
20,RRIRVRPPRLPRPRPRPFEFPRP,-0.284
21,RRIRGRPPRLPRPRPRPTFTPRP,0.638
22,RRIRTRPPRLPRPRPRPGFVPRP,-0.0603
23,RRIRDRPPRLPRPRPRPKPHPRP,0.305
24,RRIRNRPPRLPRPRPRPQDMPRP,0.0124
25,RRIRVRPPRLPRPRPRPEHYPRP,0.0358

row,Sequence,shrunken log2 fold change
1,RRIRPRPPRLPRPRPRPYIIPRP,-0.455
2,RRIRGRPPRLPRPRPRPSQHPRP,0.0187
3,RRIRYRPPRLPRPRPRPVQHPRP,-0.247
4,RRIRWRPPRLPRPRPRPGADPRP,0.839
5,RRIRYRPPRLPRPRPRPLNTPRP,-0.234
6,RRIRPRPPRLPRPRPRPCQLPRP,-0.659
7,RRIRLRPPRLPRPRPRPPPRPRP,1.66
8,RRIRWRPPRLPRPRPRPMEFPRP,-0.145
9,RRIRPRPPRLPRPRPRPAWMPRP,0.372
10,RRIRKRPPRLPRPRPRPAPSPRP,0.748
11,RRIRKRPPRLPRPRPRPRTDPRP,0.206
12,RRIRHRPPRLPRPRPRPRSDPRP,-0.123
13,RRIRGRPPRLPRPRPRPKYWPRP,1.13
14,RRIRDRPPRLPRPRPRPAFGPRP,0.238
15,RRIRMRPPRLPRPRPRPMWQPRP,0.188
16,RRIRFRPPRLPRPRPRPNIAPRP,-0.255
17,RRIRIRPPRLPRPRPRPMYYPRP,-0.32
18,RRIRCRPPRLPRPRPRPCALPRP,-0.213
19,RRIRLRPPRLPRPRPRPREMPRP,0.149
20,RRIRFRPPRLPRPRPRPSQAPRP,-0.0595
21,RRIRARPPRLPRPRPRPCNYPRP,-0.178
22,RRIRRRPPRLPRPRPRPQWIPRP,0.064
23,RRIRPRPPRLPRPRPRPDVCPRP,-0.00807
24,RRIRSRPPRLPRPRPRPWHWPRP,0.211
25,RRIRCRPPRLPRPRPRPVCLPRP,-0.168

row,Sequence,shrunken log2 fold change
1,RRIRIRPPRLPRPRPRPQVHPRP,-0.707
2,RRIRRRPPRLPRPRPRPLQRPRP,0.969
3,RRIRPRPPRLPRPRPRPGIFPRP,0.0736
4,RRIRPRPPRLPRPRPRPLWMPRP,0.0937
5,RRIRARPPRLPRPRPRPLTPPRP,0.548
6,RRIRYRPPRLPRPRPRPVIAPRP,-0.354
7,RRIRSRPPRLPRPRPRPLVAPRP,0.27
8,RRIRARPPRLPRPRPRPPCFPRP,0.482
9,RRIRLRPPRLPRPRPRPMRSPRP,0.0143
10,RRIRHRPPRLPRPRPRPSKKPRP,0.0943
11,RRIRHRPPRLPRPRPRPYWFPRP,-0.963
12,RRIRCRPPRLPRPRPRPFSRPRP,-0.332
13,RRIRMRPPRLPRPRPRPAEMPRP,0.0981
14,RRIRERPPRLPRPRPRPYTIPRP,-0.267
15,RRIRERPPRLPRPRPRPLVTPRP,0.503
16,RRIRGRPPRLPRPRPRPPQIPRP,0.859
17,RRIRQRPPRLPRPRPRPDEHPRP,2.14
18,RRIRVRPPRLPRPRPRPCIWPRP,0.0495
19,RRIRHRPPRLPRPRPRPEKKPRP,-0.00333
20,RRIRPRPPRLPRPRPRPPAAPRP,0.54
21,RRIRMRPPRLPRPRPRPHNLPRP,-0.0351
22,RRIRIRPPRLPRPRPRPWWPPRP,0.027
23,RRIRNRPPRLPRPRPRPSRLPRP,0.14
24,RRIRRRPPRLPRPRPRPWRTPRP,-0.0112
25,RRIRGRPPRLPRPRPRPLYRPRP,1.11
